# Reference: patent US20200249231
# T1: ARSKL (5-mer on peptide array)
# T1 chain: ARSKL
# T2: AYRTK (5-mer on peptide array)
# T2 chain: AYRTK
# T3: DWALQ (5-mer on peptide array)
# T3 chain: DWALQ
# T4: DYFLQ (5-mer on peptide array)
# T4 chain: DYFLQ
# T5: DYVAQ (5-mer on peptide array)
# T5 chain: DYVAQ
# T6: EWALQ (5-mer on peptide array)
# T6 chain: EWALQ
# T7: EWVAQ (5-mer on peptide array)
# T7 chain: EWVAQ
# T8: EYVAQ (5-mer on peptide array)
# T8 chain: EYVAQ
# T9: EYVLQ (5-mer on peptide array)
# T9 chain: EYVLQ
# T10: FRQRQ (5-mer on peptide array)
# T10 chain: FRQRQ
# T11: FYKYK (5-mer on peptide array)
# T11 chain: FYKYK
# T12: KYRYK (5-mer on peptide array)
# T12 chain: KYRYK
# T13: PRYRQ (5-mer on peptide array)
# T13 chain: PRYRQ
# T14: QRQTR (5-mer on peptide array)
# T14 chain: QRQTR
# T15: RYGKS (5-mer on peptide array)
# T15 chain: RYGKS
# T16: RYRQR (5-mer on peptide array)
# T16 chain: RYRQR
# T17: RYSKY (5-mer on peptide array)
# T17 chain: RYSKY
# T18: RYSQR (5-mer on peptide array)
# T18 chain: RYSQR
# T19: RYSYK (5-mer on peptide array)
# T19 chain: RYSYK
# T20: WQRQR (5-mer on peptide array)
# T20 chain: WQRQR
# T21: WYALQ (5-mer on peptide array)
# T21 chain: WYALQ
# T22: YQRQR (5-mer on peptide array)
# T22 chain: YQRQR
# T23: YRQSR (5-mer on peptide array)
# T23 chain: YRQSR
# T24: Z-[GGGARSKLGGGG]
# T24 chain: GGGARSKLGGGG
# T25: Z-[GGGAYRTKGGGG]
# T25 chain: GGGAYRTKGGGG
# T26: Z-[GGGFRQRGGGGG]
# T26 chain: GGGFRQRGGGGG
# T27: Z-[GGGFRQRQGGGG]
# T27 chain: GGGFRQRQGGGG
# T28: Z-[GGGMLAQGSGGG]
# T28 chain: GGGMLAQGSGGG
# T29: Z-[GGGQRQRQGGGG]
# T29 chain: GGGQRQRQGGGG
# T30: Z-[GGGRYESKGGGG]
# T30 chain: GGGRYESKGGGG
# T31: Z-[GGGRYSKYGGGG]
# T31 chain: GGGRYSKYGGGG
# T32: Z-[GGGYKGRGGGGG]
# T32 chain: GGGYKGRGGGGG
# T33: Z-[GGGYKYRQGGGG]
# T33 chain: GGGYKYRQGGGG
# B1: Kutzneria albida microbial transglutaminase, activated enzyme (KalbTGt3) (protein)
# chain: APLAPPLAEDRSYRTWRVEDYVEAWERYHGREMTEDERENLARGCIGVTVVNLNREDLSNPPLNLSFGSLRTAEAVQAALNKIVDTHPSPAQYEAAVAKDPILKRLKNVVKALPSWIDSAKLKASIFSKRFYSWQNPDWSEERAHTTYRPDRETDQVDMSTYRYRARPGYVNFDYGWFDQDTNTWWHANHEEPRMVVYQSTLRHYSRPLQDFDEQVFTVAFAKKDGGGSGHHHHHHHH
# How the values were obtained:
# [1] = target: T1, ARSKL (5-mer on peptide array)
# [2] = target: T2, AYRTK (5-mer on peptide array)
# [3] = target: T3, DWALQ (5-mer on peptide array)
# [4] = target: T4, DYFLQ (5-mer on peptide array)
# [5] = target: T5, DYVAQ (5-mer on peptide array)
# [6] = target: T6, EWALQ (5-mer on peptide array)
# [7] = target: T7, EWVAQ (5-mer on peptide array)
# [8] = target: T8, EYVAQ (5-mer on peptide array)
# [9] = target: T9, EYVLQ (5-mer on peptide array)
# [10] = target: T10, FRQRQ (5-mer on peptide array)
# [11] = target: T11, FYKYK (5-mer on peptide array)
# [12] = target: T12, KYRYK (5-mer on peptide array)
# [13] = target: T13, PRYRQ (5-mer on peptide array)
# [14] = target: T14, QRQTR (5-mer on peptide array)
# [15] = target: T15, RYGKS (5-mer on peptide array)
# [16] = target: T16, RYRQR (5-mer on peptide array)
# [17] = target: T17, RYSKY (5-mer on peptide array)
# [18] = target: T18, RYSQR (5-mer on peptide array)
# [19] = target: T19, RYSYK (5-mer on peptide array)
# [20] = target: T20, WQRQR (5-mer on peptide array)
# [21] = target: T21, WYALQ (5-mer on peptide array)
# [22] = target: T22, YQRQR (5-mer on peptide array)
# [23] = target: T23, YRQSR (5-mer on peptide array)
# Z-[GGGARSKLGGGG] = target: T24, Z-[GGGARSKLGGGG]
# Z-[GGGAYRTKGGGG] = target: T25, Z-[GGGAYRTKGGGG]
# Z-[GGGFRQRGGGGG] = target: T26, Z-[GGGFRQRGGGGG]
# Z-[GGGFRQRQGGGG] = target: T27, Z-[GGGFRQRQGGGG]
# Z-[GGGMLAQGSGGG] = target: T28, Z-[GGGMLAQGSGGG]
# Z-[GGGQRQRQGGGG] = target: T29, Z-[GGGQRQRQGGGG]
# Z-[GGGRYESKGGGG] = target: T30, Z-[GGGRYESKGGGG]
# Z-[GGGRYSKYGGGG] = target: T31, Z-[GGGRYSKYGGGG]
# Z-[GGGYKGRGGGGG] = target: T32, Z-[GGGYKGRGGGGG]
# Z-[GGGYKYRQGGGG] = target: T33, Z-[GGGYKYRQGGGG]
protein,measurement,setting,value
B1,Array signal (log2),[1],12 log2
same,Array signal (log2),[2],12.6 log2
same,5-mer peptide array signal with KalbTG,[3],exhibited relatively lower signal on the KalbTG array
same,5-mer peptide array signal with KalbTG,[4],exhibited relatively lower signal on the KalbTG array
same,5-mer peptide array signal with KalbTG,[5],exhibited relatively lower signal on the KalbTG array
same,5-mer peptide array signal with KalbTG,[6],exhibited relatively lower signal on the KalbTG array
same,5-mer peptide array signal with KalbTG,[7],exhibited relatively lower signal on the KalbTG array
same,5-mer peptide array signal with KalbTG,[8],exhibited relatively lower signal on the KalbTG array
same,5-mer peptide array signal with KalbTG,[9],exhibited relatively lower signal on the KalbTG array
same,"5-mer peptide array, incorporation of biotinylated amine donor",[10],the top 22 glutamine-donor substrates identified on the 5-mer peptide array with KalbTG
same,Array signal (log2),[10],8.93 log2
same,"5-mer peptide array, incorporation of biotinylated glutamine donor Z-APRYRQRAAGGG-PEG-biotin",[11],the top 17 lysine-donor substrates identified on the 5-mer peptide array with KalbTG
same,"5-mer peptide array, incorporation of biotinylated glutamine donor Z-APRYRQRAAGGG-PEG-biotin",[12],the top 17 lysine-donor substrates identified on the 5-mer peptide array with KalbTG
same,"5-mer peptide array, incorporation of biotinylated amine donor",[13],the top 22 glutamine-donor substrates identified on the 5-mer peptide array with KalbTG
same,"5-mer peptide array, incorporation of biotinylated amine donor",[14],the top 22 glutamine-donor substrates identified on the 5-mer peptide array with KalbTG
same,Array signal (log2),[15],12.4 log2
same,"5-mer peptide array, incorporation of biotinylated amine donor",[16],the top 22 glutamine-donor substrates identified on the 5-mer peptide array with KalbTG
same,Array signal (log2),[16],8.96 log2
same,"5-mer peptide array, incorporation of biotinylated glutamine donor Z-APRYRQRAAGGG-PEG-biotin",[17],the top 17 lysine-donor substrates identified on the 5-mer peptide array with KalbTG
same,Array signal (log2),[17],12.8 log2
same,"5-mer peptide array, incorporation of biotinylated amine donor",[18],the top 22 glutamine-donor substrates identified on the 5-mer peptide array with KalbTG
same,Array signal (log2),[18],8.93 log2
same,"5-mer peptide array, incorporation of biotinylated glutamine donor Z-APRYRQRAAGGG-PEG-biotin",[19],the top 17 lysine-donor substrates identified on the 5-mer peptide array with KalbTG
same,"5-mer peptide array, incorporation of biotinylated amine donor",[20],the top 22 glutamine-donor substrates identified on the 5-mer peptide array with KalbTG
same,5-mer peptide array signal with KalbTG,[21],exhibited relatively lower signal on the KalbTG array
same,"5-mer peptide array, incorporation of biotinylated amine donor",[22],the top 22 glutamine-donor substrates identified on the 5-mer peptide array with KalbTG
same,"5-mer peptide array, incorporation of biotinylated amine donor",[23],the top 22 glutamine-donor substrates identified on the 5-mer peptide array with KalbTG
same,"Reaction Rate in Solution (pmol s^-1), GLDH-coupled assay with 200 µM glutamine donor",Z-[GGGARSKLGGGG],3.87 pmol/s
same,"Reaction Rate in Solution (pmol s^-1), GLDH-coupled assay with 200 µM glutamine donor",Z-[GGGAYRTKGGGG],3.65 pmol/s
same,"Reaction rate in solution (pmol/s), GLDH-coupled assay",Z-[GGGFRQRGGGGG],2.11 pmol/s
same,"Reaction rate in solution (pmol/s), GLDH-coupled assay",Z-[GGGFRQRQGGGG],3.07 pmol/s
same,GLDH-coupled activity assay,Z-[GGGMLAQGSGGG],KalbTG exhibited no activity with preferred S. mobaraensis MTG substrates DYALQ (SEQ ID NO: 22) and MLAQG (SEQ ID NO: 13)
same,"Reaction rate in solution (pmol/s), GLDH-coupled assay",Z-[GGGMLAQGSGGG],-0.11 pmol/s
same,"Reaction rate in solution (pmol/s), GLDH-coupled assay",Z-[GGGQRQRQGGGG],2.98 pmol/s
same,"Reaction Rate in Solution (pmol s^-1), GLDH-coupled assay with 200 µM glutamine donor",Z-[GGGRYESKGGGG],4.47 pmol/s
same,"Reaction Rate in Solution (pmol s^-1), GLDH-coupled assay with 200 µM glutamine donor",Z-[GGGRYSKYGGGG],3.89 pmol/s
same,"Reaction Rate in Solution (pmol s^-1), GLDH-coupled assay with 200 µM glutamine donor",Z-[GGGYKGRGGGGG],3.01 pmol/s
same,"Reaction rate in solution (pmol/s), GLDH-coupled assay",Z-[GGGYKYRQGGGG],4 pmol/s
